Key:
human wild-type CD33 = target: T1, human wild-type CD33 (human, UniProt P20138 18-364); experiment: flow cytometry, IgG at 0.50 ug/ml on HEK293-T cells expressing CD33 against vector alone
T1 construct: also called SIGLEC3; P67
Description: Binding of the antibodies to the transfected cells and the optimal assay conditions were evaluated in 384-well format. Detection of cellular expression was measured via high-throughput flow cytometry. Serial dilutions of each antibody were tested for immunoreactivity against cells expressing CD33 or vector alone. The optimal screening concentration for each antibody was determined based on the raw signal values and signal-to-background calculations. Each point represents the mean of four replicates.

human CD33 H346A = target: T2, human CD33 H346A (human, UniProt P20138 18-364); experiment: alanine scan; flow cytometry, HEK293-T cells expressing the mutant; normalised to WT CD33;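 also: antibodies (IgG or Fab) at doses pre-set by titration on wild-type CD33, duplicate readings with background fluorescence subtracted, mutants made by site-directed alanine substitution (alanine changed to serine)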
T2 construct: Alanine-scan mutant clone of CD33 transiently transfected into HEK293-T cells
Description: (§1) An alanine scan on human CD33 was performed to the determine the residues on CD33 that are involved in binding to the antibodies investigated. […] Briefly, a mutation library of CD33 was created by high-throughput, site-directed mutagenesis. Each residue was individually mutated to alanine, with alanine codons mutated to serine. The mutant library was arrayed in 384-well microplates and transiently transfected into HEK293-T. Following transfection, cells were incubated with the indicated antibodies (IgG or Fab) at concentrations pre-determined using an independent immunofluorescence titration curve on wild type CD33. […] Binding of each antibody to each mutant clone was determined in duplicates. For each point, background fluorescence was subtracted from the raw data, which were then normalized to antibody reactivity with wild type CD33.
(§2) Critical residues for antibody binding (outlined in dark grey) were residues whose mutations led to a binding of the test Abs of less than 20%. Additional secondary residues (outlined in light grey) were identified that led to a binding of the test Abs of between 20 and 40% as compared to the wild type CD33.

human CD33 G347A = target: T3, human CD33 G347A (human, UniProt P20138 18-364); experiment: as above
T3 construct: Alanine-scan mutant clone of CD33 transiently transfected into HEK293-T cells
Description: as §1, §2

human CD33 M348A = target: T4, human CD33 M348A (human, UniProt P20138 18-364); experiment: as above
T4 construct: Alanine-scan mutant clone of CD33 transiently transfected into HEK293-T cells
Description: as §1, §2

human CD33 N349A = target: T5, human CD33 N349A (human, UniProt P20138 18-364); experiment: as above
T5 construct: Alanine-scan mutant clone of CD33 transiently transfected into HEK293-T cells
Description: as §1, §2

human CD33 P350A = target: T6, human CD33 P350A (human, UniProt P20138 18-364); experiment: as above
T6 construct: Alanine-scan mutant clone of CD33 transiently transfected into HEK293-T cells
Description: as §1, §2

human CD33 S351A = target: T7, human CD33 S351A (human, UniProt P20138 18-364); experiment: as above
T7 construct: Alanine-scan mutant clone of CD33 transiently transfected into HEK293-T cells
Description: as §1, §2

human CD33 K352A = target: T8, human CD33 K352A (human, UniProt P20138 18-364); experiment: as above
T8 construct: Alanine-scan mutant clone of CD33 transiently transfected into HEK293-T cells
Description: as §1, §2

human CD33 D353A = target: T9, human CD33 D353A (human, UniProt P20138 18-364); experiment: as above
T9 construct: Alanine-scan mutant clone of CD33 transiently transfected into HEK293-T cells
Description: as §1, §2

human CD33 T354A = target: T10, human CD33 T354A (human, UniProt P20138 18-364); experiment: as above
T10 construct: Alanine-scan mutant clone of CD33 transiently transfected into HEK293-T cells
Description: as §1, §2

human CD33 S355A = target: T11, human CD33 S355A (human, UniProt P20138 18-364); experiment: as above
T11 construct: Alanine-scan mutant clone of CD33 transiently transfected into HEK293-T cells
Description: as §1, §2

human CD33 T356A = target: T12, human CD33 T356A (human, UniProt P20138 18-364); experiment: as above
T12 construct: Alanine-scan mutant clone of CD33 transiently transfected into HEK293-T cells
Description: as §1, §2

human CD33 E357A = target: T13, human CD33 E357A (human, UniProt P20138 18-364); experiment: as above
T13 construct: Alanine-scan mutant clone of CD33 transiently transfected into HEK293-T cells
Description: as §1, §2

human CD33 Y358A = target: T14, human CD33 Y358A (human, UniProt P20138 18-364); experiment: as above
T14 construct: Alanine-scan mutant clone of CD33 transiently transfected into HEK293-T cells
Description: as §1, §2

human CD33 S359A = target: T15, human CD33 S359A (human, UniProt P20138 18-364); experiment: as above
T15 construct: Alanine-scan mutant clone of CD33 transiently transfected into HEK293-T cells
Description: as §1, §2

human CD33 E360A = target: T16, human CD33 E360A (human, UniProt P20138 18-364); experiment: as above
T16 construct: Alanine-scan mutant clone of CD33 transiently transfected into HEK293-T cells
Description: as §1, §2

human CD33 V361A = target: T17, human CD33 V361A (human, UniProt P20138 18-364); experiment: as above
T17 construct: Alanine-scan mutant clone of CD33 transiently transfected into HEK293-T cells
Description: as §1, §2

human CD33 R362A = target: T18, human CD33 R362A (human, UniProt P20138 18-364); experiment: as above
T18 construct: Alanine-scan mutant clone of CD33 transiently transfected into HEK293-T cells
Description: as §1, §2

human CD33 T363A = target: T19, human CD33 T363A (human, UniProt P20138 18-364); experiment: as above
T19 construct: Alanine-scan mutant clone of CD33 transiently transfected into HEK293-T cells
Description: as §1, §2

human CD33 Q364A = target: T20, human CD33 Q364A (human, UniProt P20138 18-363); experiment: as above
T20 construct: Alanine-scan mutant clone of CD33 transiently transfected into HEK293-T cells
T20 sequence (P20138 18-364 Q364A limits assumed): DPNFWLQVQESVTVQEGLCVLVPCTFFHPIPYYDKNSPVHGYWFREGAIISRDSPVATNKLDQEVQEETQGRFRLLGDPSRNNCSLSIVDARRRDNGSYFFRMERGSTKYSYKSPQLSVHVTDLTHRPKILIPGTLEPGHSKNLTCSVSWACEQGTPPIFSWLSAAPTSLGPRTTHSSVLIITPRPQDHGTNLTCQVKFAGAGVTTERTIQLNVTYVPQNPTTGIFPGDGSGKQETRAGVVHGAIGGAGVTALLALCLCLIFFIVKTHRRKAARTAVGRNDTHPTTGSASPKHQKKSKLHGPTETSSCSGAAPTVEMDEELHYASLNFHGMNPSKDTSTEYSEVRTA
Description: as §1, §2

T5 sequence (P20138 18-364 N349A limits assumed): as the sequence (P20138 18-364 Q364A limits assumed) above, with N332A, A347Q counted along it
T7 sequence (P20138 18-364 S351A limits assumed): as the sequence (P20138 18-364 Q364A limits assumed) above, with S334A, A347Q counted along it
T6 sequence (P20138 18-364 P350A limits assumed): as the sequence (P20138 18-364 Q364A limits assumed) above, with P333A, A347Q counted along it
T3 sequence (P20138 18-364 G347A limits assumed): as the sequence (P20138 18-364 Q364A limits assumed) above, with G330A, A347Q counted along it
T14 sequence (P20138 18-364 Y358A limits assumed): as the sequence (P20138 18-364 Q364A limits assumed) above, with Y341A, A347Q counted along it
T9 sequence (P20138 18-364 D353A limits assumed): as the sequence (P20138 18-364 Q364A limits assumed) above, with D336A, A347Q counted along it
T12 sequence (P20138 18-364 T356A limits assumed): as the sequence (P20138 18-364 Q364A limits assumed) above, with T339A, A347Q counted along it
T16 sequence (P20138 18-364 E360A limits assumed): as the sequence (P20138 18-364 Q364A limits assumed) above, with E343A, A347Q counted along it
T17 sequence (P20138 18-364 V361A limits assumed): as the sequence (P20138 18-364 Q364A limits assumed) above, with V344A, A347Q counted along it
T13 sequence (P20138 18-364 E357A limits assumed): as the sequence (P20138 18-364 Q364A limits assumed) above, with E340A, A347Q counted along it
T2 sequence (P20138 18-364 H346A limits assumed): as the sequence (P20138 18-364 Q364A limits assumed) above, with H329A, A347Q counted along it
T18 sequence (P20138 18-364 R362A limits assumed): as the sequence (P20138 18-364 Q364A limits assumed) above, with R345A, A347Q counted along it
T19 sequence (P20138 18-364 T363A limits assumed): as the sequence (P20138 18-364 Q364A limits assumed) above, with T346A, A347Q counted along it
T10 sequence (P20138 18-364 T354A limits assumed): as the sequence (P20138 18-364 Q364A limits assumed) above, with T337A, A347Q counted along it
T15 sequence (P20138 18-364 S359A limits assumed): as the sequence (P20138 18-364 Q364A limits assumed) above, with S342A, A347Q counted along it
T4 sequence (P20138 18-364 M348A limits assumed): as the sequence (P20138 18-364 Q364A limits assumed) above, with M331A, A347Q counted along it
T11 sequence (P20138 18-364 S355A limits assumed): as the sequence (P20138 18-364 Q364A limits assumed) above, with S338A, A347Q counted along it
T8 sequence (P20138 18-364 K352A limits assumed): as the sequence (P20138 18-364 Q364A limits assumed) above, with K335A, A347Q counted along it
T1 sequence (P20138 18-364 limits assumed): as the sequence (P20138 18-364 Q364A limits assumed) above, with A347Q counted along it

Binder	Signal:Background (human wild-type CD33)	Mean % WT Binding (human CD33 H346A)	Mean % WT Binding (human CD33 G347A)	Mean % WT Binding (human CD33 M348A)	Mean % WT Binding (human CD33 N349A)	Mean % WT Binding (human CD33 P350A)	Mean % WT Binding (human CD33 S351A)	Mean % WT Binding (human CD33 K352A)	Mean % WT Binding (human CD33 D353A)	Mean % WT Binding (human CD33 T354A)	Mean % WT Binding (human CD33 S355A)	Mean % WT Binding (human CD33 T356A)	Mean % WT Binding (human CD33 E357A)	Mean % WT Binding (human CD33 Y358A)	Mean % WT Binding (human CD33 S359A)	Mean % WT Binding (human CD33 E360A)	Mean % WT Binding (human CD33 V361A)	Mean % WT Binding (human CD33 R362A)	Mean % WT Binding (human CD33 T363A)	Mean % WT Binding (human CD33 Q364A)
Refmab #2 (antibody, human IgG1, V domains shown, Full-length MAb format, human IgG1 Fc silent (PG-LALA)) VH: QVQLVQSGAEVKKPGSSVKVSCKASGGTFSDYAISWVRQAPGQGLEWMGRIIPILGVADYAQKFQGRVTITADKSTRTAYMELSSLRSEDTAVYYCARNWADAFDIWGQGTMVTVSS VL: DIQLTQSPSSLSASVGDRVTITCRASQGISSVLAWYQQKPGKAPKLLIYDASSLESGVPSRFSGSGSGTDFTLTISSLQPEDFATYYCQQFDSSITFGQGTKLEIK	59 signal:background ratio																			
Refmab #6 (antibody, V domains shown, Full-length format is human IgG1 Fc silent (PG-LALA); The alanine scan used IgG or Fab) VH: QVQLQQPGAEVVKPGASVKMSCKASGYTFTSYYIHWIKQTPGQGLEWVGVIYPGNDDISYNQKFQGKATLTADKSSTTAYMQLSSLTSEDSAVYYCAREVRLRYFDVWGQGTTVTVSS VL: EIVLTQSPGSLAVSPGERVTMSCKSSQSVFFSSSQKNYLAWYQQIPGQSPRLLIYWASTRESGVPDRFTGSGSGTDFTLTISSVQPEDLAIYYCHQYLSSRTFGQGTKLEIK		104 % WT binding	95.2 % WT binding	101 % WT binding	91 % WT binding	108 % WT binding	112 % WT binding	94.1 % WT binding	92.1 % WT binding	99.3 % WT binding	98.9 % WT binding	99.5 % WT binding	91.2 % WT binding	92 % WT binding	82.5 % WT binding	93.5 % WT binding	76 % WT binding	107 % WT binding	105 % WT binding	94.4 % WT binding
Refmab #5 (antibody, V domains shown, Full-length format is human IgG1 Fc silent (PG-LALA); The alanine scan used IgG or Fab) VH: QVQLVQSGAEVKKPGASVKVSCKASGYTFTNYDINWVRQAPGQGLEWIGWIYPGDGSTKYNEKFKAKATLTADTSTSTAYMELRSLRSDDTAVYYCASGYEDAMDYWGQGTTVTVSS VL: DIQMTQSPSSLSASVGDRVTINCKASQDINSYLSWFQQKPGKAPKTLIYRANRLVDGVPSRFSGSGSGQDYTLTISSLQPEDFATYYCLQYDEFPLTFGGGTKVEIK		114 % WT binding	104 % WT binding	92.3 % WT binding	84.9 % WT binding	93.8 % WT binding	88.9 % WT binding	112 % WT binding	74.6 % WT binding	84.7 % WT binding	126 % WT binding	89.3 % WT binding	75.3 % WT binding	97.9 % WT binding	87.2 % WT binding	107 % WT binding	84.5 % WT binding	101 % WT binding	90.1 % WT binding	107 % WT binding

Source: patent US20260242735A1 (UNIVERSIT T BASEL, published 2026)
